According to article PMC3682478:

Target: E. coli RNA polymerase in elongating complexes and paused transcription complexes (transcription assays) (E. coli) (UniProt P0A7Z4)
Sequence (P0A7Z4 whole entry, chain 1 of 3): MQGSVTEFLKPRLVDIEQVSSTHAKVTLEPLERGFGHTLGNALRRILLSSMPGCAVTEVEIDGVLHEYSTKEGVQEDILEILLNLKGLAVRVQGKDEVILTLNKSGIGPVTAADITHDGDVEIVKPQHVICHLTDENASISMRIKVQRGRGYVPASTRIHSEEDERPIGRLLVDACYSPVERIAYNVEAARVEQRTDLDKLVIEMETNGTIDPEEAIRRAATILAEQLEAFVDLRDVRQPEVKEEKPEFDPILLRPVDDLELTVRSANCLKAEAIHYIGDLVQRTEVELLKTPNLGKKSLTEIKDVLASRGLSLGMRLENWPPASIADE
Sequence (P0A8V2 whole entry, chain 2 of 3, further chain): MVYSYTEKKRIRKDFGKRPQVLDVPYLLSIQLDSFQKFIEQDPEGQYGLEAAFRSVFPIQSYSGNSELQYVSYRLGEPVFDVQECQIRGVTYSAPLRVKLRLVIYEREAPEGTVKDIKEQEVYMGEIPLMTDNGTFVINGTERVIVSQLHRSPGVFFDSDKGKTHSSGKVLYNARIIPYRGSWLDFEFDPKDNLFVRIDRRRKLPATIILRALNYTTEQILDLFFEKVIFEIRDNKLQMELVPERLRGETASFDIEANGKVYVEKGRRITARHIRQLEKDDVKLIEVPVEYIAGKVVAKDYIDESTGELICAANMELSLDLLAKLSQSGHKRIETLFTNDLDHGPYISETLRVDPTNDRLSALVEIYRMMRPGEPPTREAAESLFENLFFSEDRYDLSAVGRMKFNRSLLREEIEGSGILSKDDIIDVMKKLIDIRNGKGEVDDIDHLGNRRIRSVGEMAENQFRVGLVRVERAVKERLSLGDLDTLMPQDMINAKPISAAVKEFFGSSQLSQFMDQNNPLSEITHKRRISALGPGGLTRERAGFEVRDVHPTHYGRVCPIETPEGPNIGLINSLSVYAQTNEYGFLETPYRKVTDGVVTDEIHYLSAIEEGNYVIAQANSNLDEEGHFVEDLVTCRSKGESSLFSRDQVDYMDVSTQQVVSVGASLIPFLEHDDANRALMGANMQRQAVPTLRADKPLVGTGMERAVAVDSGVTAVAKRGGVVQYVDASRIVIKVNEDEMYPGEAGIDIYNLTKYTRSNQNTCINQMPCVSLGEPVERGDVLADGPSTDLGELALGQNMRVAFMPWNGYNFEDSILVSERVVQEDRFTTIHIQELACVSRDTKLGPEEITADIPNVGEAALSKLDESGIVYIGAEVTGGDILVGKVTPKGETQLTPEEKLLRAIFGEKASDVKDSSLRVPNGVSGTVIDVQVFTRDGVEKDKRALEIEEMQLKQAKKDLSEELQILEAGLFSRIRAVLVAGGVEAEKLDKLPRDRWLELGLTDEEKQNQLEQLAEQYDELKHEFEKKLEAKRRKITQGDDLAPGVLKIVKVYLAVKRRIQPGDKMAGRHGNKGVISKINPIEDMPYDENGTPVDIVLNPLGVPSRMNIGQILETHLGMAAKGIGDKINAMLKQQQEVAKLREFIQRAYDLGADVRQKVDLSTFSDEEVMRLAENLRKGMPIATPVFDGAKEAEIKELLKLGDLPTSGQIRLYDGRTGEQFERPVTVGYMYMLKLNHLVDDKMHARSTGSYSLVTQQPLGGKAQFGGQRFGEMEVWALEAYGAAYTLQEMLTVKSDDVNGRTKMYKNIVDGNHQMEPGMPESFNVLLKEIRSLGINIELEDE
Sequence (P0A8T7 whole entry, chain 3 of 3, further chain): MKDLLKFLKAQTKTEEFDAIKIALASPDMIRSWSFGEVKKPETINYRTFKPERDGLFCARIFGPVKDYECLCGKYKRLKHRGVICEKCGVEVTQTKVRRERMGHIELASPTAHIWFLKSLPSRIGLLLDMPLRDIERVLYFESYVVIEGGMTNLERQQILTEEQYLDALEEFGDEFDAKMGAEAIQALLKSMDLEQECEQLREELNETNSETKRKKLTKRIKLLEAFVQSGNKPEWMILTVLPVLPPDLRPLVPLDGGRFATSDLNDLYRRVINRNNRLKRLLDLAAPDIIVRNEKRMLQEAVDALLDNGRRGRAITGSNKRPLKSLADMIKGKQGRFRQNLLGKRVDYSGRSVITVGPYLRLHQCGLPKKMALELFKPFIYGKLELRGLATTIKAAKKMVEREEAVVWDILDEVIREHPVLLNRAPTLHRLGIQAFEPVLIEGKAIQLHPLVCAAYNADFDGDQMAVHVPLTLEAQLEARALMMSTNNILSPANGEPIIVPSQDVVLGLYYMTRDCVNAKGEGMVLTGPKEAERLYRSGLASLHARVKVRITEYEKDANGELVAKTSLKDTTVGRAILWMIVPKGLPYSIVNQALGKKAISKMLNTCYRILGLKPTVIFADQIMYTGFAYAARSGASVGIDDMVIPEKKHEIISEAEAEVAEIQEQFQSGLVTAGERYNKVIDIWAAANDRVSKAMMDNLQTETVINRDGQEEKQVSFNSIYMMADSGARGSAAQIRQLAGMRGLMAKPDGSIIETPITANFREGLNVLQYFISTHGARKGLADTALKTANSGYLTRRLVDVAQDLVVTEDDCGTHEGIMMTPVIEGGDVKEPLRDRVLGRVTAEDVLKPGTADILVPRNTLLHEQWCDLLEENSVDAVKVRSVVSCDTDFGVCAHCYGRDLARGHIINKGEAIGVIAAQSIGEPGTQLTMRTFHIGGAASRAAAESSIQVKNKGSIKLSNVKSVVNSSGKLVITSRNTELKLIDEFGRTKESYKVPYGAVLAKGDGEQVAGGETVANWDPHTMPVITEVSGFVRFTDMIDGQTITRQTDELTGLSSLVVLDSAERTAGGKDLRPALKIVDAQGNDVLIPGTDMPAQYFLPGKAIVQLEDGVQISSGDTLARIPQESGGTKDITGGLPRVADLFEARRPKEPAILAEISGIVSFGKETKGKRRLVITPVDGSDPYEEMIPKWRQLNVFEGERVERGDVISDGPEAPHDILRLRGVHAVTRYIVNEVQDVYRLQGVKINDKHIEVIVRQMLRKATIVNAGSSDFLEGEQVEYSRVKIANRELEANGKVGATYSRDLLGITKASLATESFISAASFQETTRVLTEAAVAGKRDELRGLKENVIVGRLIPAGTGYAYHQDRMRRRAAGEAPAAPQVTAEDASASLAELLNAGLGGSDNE

Substance: NusA NTD with N-terminal deletion, Δ(3-18) NTD (from UniProt P0AFF6 1-137) (domain or fragment)
- maximal pause stimulation k0/kNusA, his pause, scaffold: 1.27
